Where no end group is shown, it is not given here.
B1: Phage-1010 (Peptide-87 library peptide, SEQ ID NO: 1326) (peptide)
peptide: YCDGHSELYMAKCL
notes: tested as crude clonal phage supernatant
B2: Phage-1012 (Peptide-87 library peptide, SEQ ID NO: 1328) (peptide)
peptide: YCEGHMPQYMEKCL
notes: as for B1
B3: Phage-1013 (Peptide-87 library peptide, SEQ ID NO: 1329) (peptide)
peptide: YCEGHSLMYMAKCL
notes: as for B1
B4: Phage-1014 (Peptide-87 library peptide, SEQ ID NO: 1330) (peptide)
peptide: YCDGHSQEYMEKCL
notes: as for B1
B5: Phage-1020 (Peptide-87 library peptide, SEQ ID NO: 1336) (peptide)
peptide: YCEGHIMQYMAQCL
notes: as for B1
B6: Phage-1021 (Peptide-87 library peptide, SEQ ID NO: 1337) (peptide)
peptide: YCDGHLPIYQAKCL
notes: as for B1
B7: Phage-1022 (Peptide-87 library peptide, SEQ ID NO: 1338) (peptide)
peptide: YCDGHSEQYIAKCL
notes: as for B1
B8: Peptide-259 (peptide)
peptide: IAVLCQPNWMCAAF
notes: Alanine-scan variant G13A of Peptide-180
B9: Peptide-260 (peptide)
peptide: IAVLCQPNWMCAGA
notes: Alanine-scan variant F14A of Peptide-180

These binders were tested against T1, PSMA Fab (assay: BLI (Octet); PSMA Fab on sensor-loaded biotinylated peptide, 1:1 model).
T1 construct: also called 006 PSMA Fab; anti-PSMA Fab

With IAVLCQPNWMCAGF (cysteine pairing not given here; also: biotinylated, site not given here, PSMA mask peptide) [Peptide-180] the “Off rate t1/2” value was 36 s.

Target: T1, PSMA Fab
Test: as above
Remark: another data set of the same source

In the case of LMKWCTPRWMCAAE (cysteine pairing not given here; also: biotinylated, site not given here, PSMA mask peptide) [Peptide-179], the “Off rate t1/2” value is reported as 72 s.

The binders below were run against T1, PSMA Fab (assay: binding ELISA; PSMA Fab titrated on plate-captured biotinylated peptide).

With IAVLCQPNWMCAGF (cysteine pairing not given here; also: biotinylated, site not given here, PSMA mask peptide) [Peptide-180] the EC50 was 0.102 µM.

Target: T1, PSMA Fab
Test: as above
Remark: another data set of the same source

With LMKWCTPRWMCAAE (cysteine pairing not given here; also: biotinylated, site not given here, PSMA mask peptide) [Peptide-179] the EC50 was 0.11 µM.

The binders below were run against T2, Anti-CD28 Fab (SEQ ID NOs: 696, 697) (assay: phage binding ELISA on captured Fab; competitor: CD28 antigen pre-incubated in the wells).
T2 construct: Biotinylated and captured on neutravidin coated plates in the phage ELISA
T2 sequence (VH, as listed by the source, chain 1 of 2): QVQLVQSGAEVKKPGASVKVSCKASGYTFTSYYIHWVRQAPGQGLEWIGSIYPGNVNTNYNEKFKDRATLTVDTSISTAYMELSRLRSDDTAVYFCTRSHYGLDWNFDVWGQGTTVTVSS
T2 sequence (VL, as listed by the source, chain 2 of 2): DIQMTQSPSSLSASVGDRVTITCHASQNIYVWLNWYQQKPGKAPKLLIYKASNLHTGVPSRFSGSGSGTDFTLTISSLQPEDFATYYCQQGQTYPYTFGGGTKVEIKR
Description: (§1) After panning, phage infected bacteria were plated out and colonies picked into 96 well blocks. Clonal phage was then amplified and separated from bacterial cells via centrifugation.
(§2) Clonal phage were harvested as crude supematants and screened via standard ELISAs. […] Prior to the addition of clonal phage, wells were incubated with blocking buffer and CD28 antigen or blocking buffer alone. Without washing or aspirating, clonal phage supematants were then added to the wells and incubated for a short time. Wells were then washed followed by detection of bound phage using a horse radish conjugated anti-M13 antibody. Clonal phage of interest were then sent for sequence analysis.

B1 and B2 are the same in “Anti-CD28 Fab signal in the presence of CD28 (phage binding ELISA)” value: 0.06 for the first, 0.06 for the second.

B3 and B4 are the same in “Anti-CD28 Fab signal in the presence of CD28 (phage binding ELISA)” value: 0.06 for the first, 0.06 for the second.

Compared with B5, B6 is higher in “Anti-CD28 Fab signal in the presence of CD28 (phage binding ELISA)” value: 0.06 for the first, 0.1 for the second.

In the case of B7, the “Anti-CD28 Fab signal in the presence of CD28 (phage binding ELISA)” value is reported as 0.08.

These binders were tested against T1, PSMA Fab (assay: competition ELISA; peptide 0-100 µM with 0.3 nM PSMA Fab on plate-captured biotinylated PSMA).
Description: The concentration of peptide required to reduce the maximum signal by 50% (IC₅₀) was calculated in Graphpad Prism software.

LMKWCTPRWMCAAE (cysteine pairing not given here; also: biotinylated, site not given here, PSMA mask peptide) [Peptide-179] was tested, and the IC50 was 6.49 µM.

Target: T1, PSMA Fab
Test: as above
Remark: another data set of the same source

Compared with IAVLCQPNWMCAGF (cysteine pairing not given here; also: biotinylated, site not given here, PSMA mask peptide) [Peptide-180], AAVLCQPNWMCAGF (Alanine-scan variant I1A of Peptide-180) [Peptide-251] is 1.6-fold higher in IC50: 5.23 µM for the first, 8.45 µM for the second.

Compared with IAALCQPNWMCAGF (Alanine-scan variant V3A of Peptide-180) [Peptide-252], IAVACQPNWMCAGF (Alanine-scan variant L4A of Peptide-180) [Peptide-253] is 4.9-fold higher in IC50: 5.7 µM for the first, 28.2 µM for the second. The first is the more potent here.

Going from IAVLCAPNWMCAGF (Alanine-scan variant Q6A of Peptide-180) [Peptide-254] to IAVLCQPAWMCAGF (Alanine-scan variant N8A of Peptide-180) [Peptide-256], the IC50 falls from 15.7 µM to 2.16 µM (7.3-fold).

B8 and B9 are within 1.5-fold of each other in IC50: 67.9 µM for the first, 60 µM for the second.

Target: T1, PSMA Fab
Test: as above
Remark: another data set of the same source

IAVLCQPNWMCAGF (cysteine pairing not given here; also: biotinylated, site not given here, PSMA mask peptide) [Peptide-180] gave an IC50 of 4.14 µM.

Target: T1, PSMA Fab
Test: as above
Remark: another data set of the same source

With LMKWCTPRWMCAAE (cysteine pairing not given here; also: biotinylated, site not given here, PSMA mask peptide) [Peptide-179] the IC50 was 7.71 µM.

Each binder was assayed against T3, Anti-CD28 Fab (SEQ ID NOs: 696, 697) (assay: phage binding ELISA on captured anti-CD28 Fab; wells pre-incubated with CD28 antigen as competitor).
T3 construct: In the phage ELISA the Fab was biotinylated and captured on neutravidin coated plates
T3 sequence (VH, as listed by the source, chain 1 of 2): as the sequence (VH, as listed by the source, chain 1 of 2) above
T3 sequence (VL, as listed by the source, chain 2 of 2): as the sequence (VL, as listed by the source, chain 2 of 2) above
Description: as §1, §2

Compared with YCDGHLPEYMEKCL [Phage-1327 (Peptide-87 library sequence, SEQ ID NO: 1643)], YCAGHASEYLQKCL [Phage-1328 (Peptide-87 library sequence, SEQ ID NO: 1644)] is lower in “Phage binding ELISA, Anti-CD28 Fab signal in the presence of CD28” value: 0.07 for the first, 0.06 for the second.

YCDGHSQIYMSKCL [Phage-1329 (Peptide-87 library sequence, SEQ ID NO: 1645)] and YCDGHWPGYLWKCL [Phage-1330 (Peptide-87 library sequence, SEQ ID NO: 1646)] are the same in “Phage binding ELISA, Anti-CD28 Fab signal in the presence of CD28” value: 0.06 for the first, 0.06 for the second.

In the case of YCTGWQVAYMQNCF [Phage-1331 (Peptide-87 library sequence, SEQ ID NO: 1647)], the “Phage binding ELISA, Anti-CD28 Fab signal in the presence of CD28” value is reported as 0.06.

The binders below were run against T2, Anti-CD28 Fab (SEQ ID NOs: 696, 697) (assay: phage binding ELISA; biotinylated Fab on neutravidin plate, clonal phage supernatant, anti-M13 HRP; background signal 0.06).
Description: as §1, §2

B1 and B2 are the same in “Anti-CD28 Fab signal (phage binding ELISA)” value: 1.51 for the first, 1.51 for the second.

B3 and B4 are the same in “Anti-CD28 Fab signal (phage binding ELISA)” value: 1.5 for the first, 1.5 for the second.

B5 and B6 are the same in “Anti-CD28 Fab signal (phage binding ELISA)” value: 1.49 for the first, 1.49 for the second.

In the case of B7, the “Anti-CD28 Fab signal (phage binding ELISA)” value is reported as 1.49.

The binders below were run against T3, Anti-CD28 Fab (SEQ ID NOs: 696, 697) (assay: phage binding ELISA; biotinylated anti-CD28 Fab captured on neutravidin plate, clonal phage supernatant, anti-M13 HRP detection).
Description: as §1, §2

YCDGHLPEYMEKCL [Phage-1327 (Peptide-87 library sequence, SEQ ID NO: 1643)] and YCAGHASEYLQKCL [Phage-1328 (Peptide-87 library sequence, SEQ ID NO: 1644)] are the same in “Phage binding ELISA, Anti-CD28 Fab signal” value: 0.43 for the first, 0.43 for the second.

YCDGHSQIYMSKCL [Phage-1329 (Peptide-87 library sequence, SEQ ID NO: 1645)] and YCDGHWPGYLWKCL [Phage-1330 (Peptide-87 library sequence, SEQ ID NO: 1646)] are the same in “Phage binding ELISA, Anti-CD28 Fab signal” value: 0.42 for the first, 0.42 for the second.

For YCTGWQVAYMQNCF [Phage-1331 (Peptide-87 library sequence, SEQ ID NO: 1647)], the “Phage binding ELISA, Anti-CD28 Fab signal” value was 0.42.
